Assay results taken from a protein production outcome set (Wang et al. 2014).

Assay: label from the status in PepcDB records

Sequence	protein production
MIDVIGTDAGAPASLPAAQQALIRAAEQIAAPRRLQPALETWLESPVPLIDSDDPRHLVEVLSALSAQTNAVVLASGDPLWFGIGRILAERLGPERLRFHPAPTSLQLAFARIGRPWQDARWVSLHGRDPEPLARELQTRPRALAVLTDPGRGGADAVRRCLRSSGLEASYQLWLGENLGHADERMRLIPADAPLPEPLQPLLVALLIAEEPSIPNSRALPLFGLEDGLYLQHPDHPGLMTKREARIQLLADLDLPDQGVLWDLGAGTGSIGLEALRLRPQLRLLAVERRAGGAALIQANAKRLEVMPSAVVETDALSLLSADLPDGLDQPDRVLLGGGGPHREALLKAVLQRLRPSGIVVIPLATLEAVATLRPLMEQSGLTVQLNQLQAWRGQPLSDGTRLAPMNPILSLKGT	failed
MIDVPFLKNVTLKKENIPSFSAYPYCLPAIRTLQSLAFHPNVTFIIGENGTGKSTLLEGIAIALGFNAEGGTKNFRFSTNDSHSSLHEYLRISKSFNTPSDGFFLRAESFYNVASYIDEIDADLEARGNPVIDSYGGISLHEQSHGESFFSLFMNRFSGQGLYILDEPEAALSPMRQLSMLIRMHELAEQGSQFVIATHSPILMAYPESTIYSLTQEGIQESALEDTEHYQTTKLFFENRDRLFHHLFNSLEHHHHHH	not failed
MIDWPLAELLPHAGDMILIDQVLAFDEEQIRTRLEVRPGGLFNRPDGSLPAWVGVELMAQSVAAYAGCRARQQGLPVELGFLLGTRKFECNVEHFPLGSTLEIHALRSLEDDNGMGVFECHLSGPGITASARLNVFRPPQAADYLHETPASSTGTPS	failed
MIEIKNVNKVFYQGSKEILALKDINLHIAKGTIFGVIGSSGAGKSTLIRCVNMLEAPSSGSIIVDGVDLTTLSKKQLVETRRNIGMIFQHFNLLSSRTVFDNVALPLELAGKDKSQITTKVTELLKLVGLADKHESYPSNLSGGQKQRVAIARALASDPSVLLCDEATSALDPATTQSILELLKEINRKLNITILLITHEMEVVKSICHEVAIIGGGELVEKGTVGDIFAHPKTELAHEFIRSTLDLSIPEDYQARLQPNRVEGSYPLVRMEFTGATVDAPLMSQISRKYNIDVSILSSDLDYAGGVKFGMMVAELFGNEQDDSAAIEYLREHNVKVEVLGYVL	not failed
MIEKKRIEIFPKHMGFFPYMWFVYLLFPIYHLAQASGWKLVIGSGMLIIFIVTYRQLYFVQRTFVFWACIQMVLIFLFALFYNPFMIFFGFFTASAMGFAPNKKVFRVLLCSLVIMLGAFLFVNMNQLTTTSLVNIVPMFILMILTPFGMRNFNQKKMLRNQLDQANEQIKDLVKREERQRIARDLHDTLGHTLSLITLKSQLVEKLIVKNPERASAEAKEITQTSRTALKQLRELISDMRMITVEEELEQIKAILQAANIELEVRQEARSSSLSPIEQNIVGMCLREAVTNVVKHSKATRCAVSVLESQGELILKVEDNGIGLTDQNHDGNGIRGMKERIALIDGFVELGTINPGTLLTVKVPVVIRTGKDEVRA	failed
MIELQLELFPGHIAGLLLVELSKPVEDFASIFIQGTWECALLDAGVVFHKSQLLTAVNVAFQRFEAGRLKTHSLHNEVMLALSAKLSIRDGLAAVRFSWEKTRCLVVAVDPPASFPQAAESTSNALAAKVRHFPEGANELFNELLVHVDKPSIQNLYGTDIDPHWICTKIATVEYVRQLR	failed
MIEMLGIKIPLRKTTILPVLSFTLSSYFLTNFIFYLQYTDYTGLVEFLLIGAPFIGRAITPITYPFLMSRINIERITYLSLGNMAILDILEFFMGTDTLALILLRVATGILFGLATSAAVELATQSRSKIIMGMTMGGWALGWILSALMSFLMGKMVLITSSFSLVFFLLIKRSNIDKKLFSNSGSISIAFSWKALLIFLLGFEPAYILQLIPSLLGENNAIEETIIAYSISFIAYIILPSIGNIRISSLLTSLMIGILGFTSFITLKAWMFIPFTVLGLGLNSLLPIIIKLMKVEVTKIGPSMNLASLSGFLIPSLVSIGDIEINSAILTLISSISLGAIVYKNLKITA	failed
MIEQELTYQDLRIPSSEIYEAMGYKDSIPDQMVIDETNTLLKRVIPLLRPRFAFFFMEGTLDIEKETLSVQSIHPPTVNPIQDTIPTRSPEQNTFSTQSKSTVFSVGKTIARQLRGSEAFVFFAATAGTEFEVFQHTLQQEEDMVKIYIADSLGSIIAEKTADCMEVALAEYIREKNWKHTNRYSPGYCGWHVSEQQKLFPLFPIAAPCGIRLTDSSLMVPIKSVSGVIGTGTNVRKLEYTCGLCTYENCYRKRKHR	not failed
MIESAVGKAAYSTAAFLIKSLPVVVIAIYAVSYSIKKGYLERFALFLQPALRKFGVSEFAVISFATCFVSPTASYSMLSQAWREKKVDDREVIAISFLNSFPSVFSHLYAYFIPFVIPVLGFAGVVYTAVRFAVAAIKSLIGLLLSRSRKNSDTSAPELSPLSVSQNVVRIGAVMAATYFIVSLLSQLGVFDLMAESLKFLPFRAEAVTIAIVEFFNIRSAVVTAASFIDAGLEWKWAVIGLILGNVISFSTRSVKHSLPMHLSLFGGFGVKIVLLNSIVTLILDIFFVVLLLLV	failed
MIETLITFIIIFGIIVAIHEYGHLWWAKRSGILVREYAVGMGPKIFAHQAKDGTLYTIRILPLGGYVRLAGWGDDKTEIKKGQAASLVVSKSEVVNPEAENSVSNIVRRINLSEHVELEEAIPMLITEYDFEKELFIEGEVFGEIKRYSVDHDATIIEEDGTEVRIAPLDVQYQSAGVFHKMLTNFGGPLNNFILGIIAFIVLTFVQGGVPSTTNAIGQVEKGTPAYNAGLKAGDKIEAVNGTKTADWNNVVTEISGSKGKELKLEVSRSGKSETLSVTPKKMDGSYRVGIMQSMKTGFFDKITGGFVQAGQSATAIFKALGSLIARPSLDKLGGPVAIYQLSGQAARAGFPAIVYLLAMLSINLGIVNLFPIPVLDGGKIVLNIIEAIRGKALSQEKESIITMVGVVFMLVLFVAVTWNDILRAFVN	failed
MIFERIKSEGLAHLSYLIGSGDEAIVIDPRRDCQVYFDLARSKGMKIKYIFETHRNEDYIIGSLELEKLTDAGIYHGSGVDFKYGNILKKDRQEFIFGALKLTALHTPGHTDESMSYVLTDPDAGKEPIMVFTGDALFVGDVGRTDLYGPEEVPRLAANLYDSIFNKILPLGDGVILCPAHGAGSLCGGAISNREYSTLGLEKVQNPVLKKTEKEEFVKFKLEEKLEFPPYFKKMEQYNLQGPPLLQSLPIPKLLSPDEFKAEMEKGAVVVDTRMPHSFGGALIKGSYSIWLEGLPSFAGWMLPYDKPILLVLEEKEQLETAVRYLVRLGYDNMRGFLNGGIAAWYMEALQIDGFNLLSVHDLKSKLEKDEEIVILDVRSNEEWEEGHIEGARHIYVGHVEENLDEIPKDCPIVVYCGSARRSNIAASVLKKHGYRKIYNVLGSMVAWKNAGYEVVK	failed
MIFIKKPSLKALSCASILFALSGCVPPNQFGEDYSRDVCKTKRDELIALDNHFSSNMVAGGIIGTLAGAGLGAAAAAATNGDIITATLIGAAAGMAVGAGSAYWNELSKQHGEGELLLFSLLGDMRRDEEKVTKAQIALDNLMSCRRTEAAQVHADYRAKRISAQEAKTRMEAIRRRAEKDVSVAKDINKGVQDRRGSYEYAFEQSKKIKTKNKKDKKKIEKTYTSMDKYCGSYNTSVQVAETSLNTEFKADGFTSSYLIYPDSTPNTQISCR	failed
MIFMRKVVAEVSIIPLGKGASVSKYVKKAIEVFKKYDLKVETNAMGTVLEGDLDEILKAFKEAHSTVLNDVDRVVSSLKIDERKDKENTIERKLKAIGEL	not failed
MIFNSARLKDMDIQYQILRQIEKYQTIIIHRHQRPDPDAVGSQLGLKNGLQAAFPEKNIYAVGKEITGLAWVGSMDIIPDSTYENALVIVIDTANVARIDDDRFKNGDKLIKIDHHPNDEPYGDLMWVEPGRSSCSEMVTFFLDDNIPLLLTDEAARNLYIGIVGDTGRFMYASTPETFIAVSKLYHFSIDYERVNREMSSISLVQARFSGKVYDEMKVEDHVGWITLTKAEIEAGHLGNEGTNFVVGMFGSIKEVLVWANFIENDDGSYRVRLRSKGPNVNEIAKLHNGGGHDMASGAKAKDQTEIDQIIKELKESANIFSTSLEKTAK	failed
MIFSQRIYFIILFHVLLILVTAGTGLWLVVSHTGYIIGGILLLCSLFQIGALTRQLNTFNRKIRLFFDAVQDKDNMLYFPEANVGKEQAQLNRSLNRLNDLLARTKGESHKQEHFYQSLLEEVPSGVLAWDDSGRIIIANSAAFSLLKCNRLYTETQLAQLLNATGIRKSLSISEKKMILDGETITILSIKDIGDELSDKENESWSKLTHVLTHEIMNTIAPILSLSQTLSERPDINEKSARGLRIIQAQSERLMEFTESFRHLSYLPHPEKRRFALTEMLRNLEELLQSDFRERGIRFMLQCVPDPIETDGDPNQLSQVFLNLLKNAMQALEGQADGRIILRVRRADRLQVEIEDNGPGIPEEIREQIFIPFFTTKTEGSGIGLSLCKQIIRQHDGHLSIRESRPGQTIFSLDLP	failed
MIGGSLDAFIGSVHRMAAALDGTIELVCGAFSSNAARSIQTGEALHLPKERIYASYEEMIVQEAQLPADVRMQFVSIVTPNHLHAQPALLALKHGFHVLCEKPLAFSVAEAEQLGIQVKETGLLFGLTHTYTAYPMVKEARDLIAKGKLGTIRKIIVEYPQGWLSAPIESDGQKQAGWRTDPAQAGLSCCVGDIGTHAENIAEYITGLKITELSADVSSVVAGRKLDDDANILLRFDNGAKGVLIASQIANGEENELKIRVYGEHAGLEWLQSEPNTLIVKQNDQPTQLRRAGANHSYLSEHARLHCRIPAGHPEGYIEAMANIYRNFSKAVHSFEDQITHNPLLDYPTIEDGIRGMKFIETVIISGKENATWKQLLEHHHHHH	not failed
MIGKVLEGRYEIVSELGGGGMARVYRGQDRLLNRNVTIKILREQYASDKEFLARFQREAQAVASLSHPNVVSIYDVGQEDDLHYLIMEYVEGRSLKDLISERAPLPPLEAIDISLQICDALEHAHENGVIHRDIKPHNILITRNGRVKVTDFGIAQAVSEVTMSQSGTMIGSVHYLAPEQARGGVIGATADIYSLGIVLYEMLTGDLPFHGETPVAVALKHLQENPRPVRELNPNVPPALERVVMRTLEKDPARRYPSAAALRSDLLAVRNALADATFATQVLPAIETPDPPSTLPKPRRRPRVWAWVLMALLFLGLAAAGLWAGFRYYLAVGETLVPSVVGLPEGQALEQLAAAGLRGQVIARQYDASVPAGQVMAQDPGPNQRVRRGRVVALTVSQGARLVRVPSVIGETERNARLILENANLKVAADTLKVYHPSIPAGSVVDQNPPANTQQPEGTEVRLIISKGPEPQFTTAPSVVGLSLAEAQQKLLEAKLKQGTLTYQRSDNQFPGYIIAQDPREGSNVLQGSAINLVVSQGPGPVQKQVGVTIDPAPDDKDHEVRIVVTDAKGTNEVLKKKQKMGQQIQATINYFGKGKLQVFRDGNVIYEQDLQ	failed
MIGLVPSPIELSYISDISVPKAASAPAYYDLRALNRLTSVKDQGTAGTCWAFASYSSLESYLKPGEDWDFSENNMKNLLSSAYQEGFDRDPNDGGNRIQAAAYLARWSGPVKESDDPYSTFSGVSPADLPIKKHVQDVIFIPDRADPLDNEAIKWAVQNYGAVYTTMHYNNTFYSPEYYSYYFNGTSEPNHAVAIVGWDDSYDRNNFSKVPPGNGAFIMKNSWGPEWGDKGYFYVSYYDSKAGNGSSVFTAENPENYEYIYQYDPFGWVSSMGYSKPLAWVSNVFTAKSDEVLKAVSFYTTDSNCNYEIYIYTDPVSGPINPAGPVLSKNGTCLTAGYHTIPLDSEVRLIAGQKFSVVIKLTNPSYRYLIPLEKPKDSWSSKARANTGESFISSSGSTWTDVNTSYANSNVCIKAFTNSVLLPIANFSSNITEGYAPLSVQFRDLSGHSTDRTWDFENDGNIDSVEANPIHLFSAPGSLEHHHHHH	failed
MIGMDHLAIGTYEGFLIGYDIDTQPNDPKTTTGCTLRYAYAAHERSIRCIAGSFPILASASVDESIKVYQLDQLQELATLYDLQVPVNSVDIQLQGGLLSGGEDGKLVYYPYGGWSKPKYLKGHKGNVHSVALHPTGQICLSVARDKCLKLWKTNGDCVCSLELPDEAFIVKWTEDGQGWVIATQTSFSVHSLQTGLIQQWEYSTRLVCLCALTNDIFVVGGMDGHLRVGENKPIQVHKVDGGSLVKGIGVGRDGCIYSLSSKGVLEMVAPSRQLEIQNGVVKRYIE	failed
